Among the data in patent publication US20080009038A1 (Chugai, published 2008) are binding result and agonistic activity (EC50 value: pM) in BaF3-human Mpl, cell proliferation (WST-8) values, retold here.

The chains are these.
T1: human Mp1 (human, UniProt P40238 26-491, limits assumed)
T1 construct: The analyses of section 1.6 used shMp1-FLAG and hMp1-Fc in ELISA, and CHO-human Mp1 and BaF3-human Mp1 cells; also called human Mpl; TPO receptor
T1 sequence (looked up): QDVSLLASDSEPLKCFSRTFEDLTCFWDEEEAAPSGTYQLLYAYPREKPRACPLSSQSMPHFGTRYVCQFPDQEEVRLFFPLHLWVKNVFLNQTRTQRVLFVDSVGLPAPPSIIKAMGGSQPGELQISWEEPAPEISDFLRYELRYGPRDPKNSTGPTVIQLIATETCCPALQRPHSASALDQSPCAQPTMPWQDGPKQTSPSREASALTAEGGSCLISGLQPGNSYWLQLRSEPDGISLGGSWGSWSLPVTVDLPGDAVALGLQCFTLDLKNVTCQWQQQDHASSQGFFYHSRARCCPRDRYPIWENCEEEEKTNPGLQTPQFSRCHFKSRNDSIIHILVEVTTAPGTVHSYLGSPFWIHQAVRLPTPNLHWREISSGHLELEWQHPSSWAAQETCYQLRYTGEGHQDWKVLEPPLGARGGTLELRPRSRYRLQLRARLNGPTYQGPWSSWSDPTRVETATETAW

B1: anti-human Mp1 antibody VB22B (antibody, mouse IgG2b, V domains shown)
VH: QVQLQQSGPELVKPGASVKISCKASGYAFTNSWMNWVKQRPGKGLEWIGRIYPGDGETIYNGKFRVKATLTADKSSSTAYMDISSLTSEDSAVYFCARGYDDYSFAYWGQGTLVTVSA
VL: DIVMTQAAPSIPVTPGESVSISCRSSKSLLHSNGNTYLYWFLQRPGQSPQLLIYRMSNLASGVPDRFSGSGSGTAFTLRISRVEAEDVGVYYCMQHIEYPFTFGSGTKLEIK
notes: Mouse monoclonal antibody from a hybridoma, tested as culture supernatant; they were cloned with primers for the mouse IgG2b and kappa constant regions
B2: VB16 diabody (scFv, V domains shown, part only)
VH: QVQLQQPGTELVRPGASVKLSCKASGYTFTDYWVNWVKQRPGRGLEWIGRIHPYDSETHYNQKFKNKATLTVDKSSSTAYIQLSSLTSEDSAVYYCASGGWFASWGQGTLVTVSA
VL: DIVMTQAAPSVPVTPGESVSISCRSSKSLLYSNGNTYLYWFLQRPGQSPQLLIYRMSNLASGVPDRFSGSGSGTAFTLTISSVEAEDVGVYYCMQHLEYPYTFGSGTKLEIK
modifications: (Gly4Ser)1 linker; C-terminal FLAG tag
B3: VB140 diabody (scFv, V domains shown, part only)
VH: QVQLQQSGPELVKPGASVKISCRAFGYAFSNSWMNWVKQRPGKGLEWIGRIYPGDGETNNNGKFKGKATLTADKSSSTAYMQLSSLTSEDSAVYFCARGYGDYSFAYWGQGTLVTVSA
VL: DIVMTQAAPSVPVTPGESVSISCRSSKSLLHSNGNTYLYWFLQRPGQSPQLLIYRMSNLASGVPDRFSGSGSGAAFTLRISRVEAEDVGVYYCMQHLEYPYTFGSGTKLEIK
modifications: (Gly4Ser)1 linker; C-terminal FLAG tag
B4: VB45B diabody (scFv, V domains shown, part only)
VH: QVQLQQSGPELVKPGASVKISCKASGYAFSSSWMNWVKQRPGKGLEWIGRIYPGDGETNNNGKFKGKATLTADKSSTTAYMQLSSLTSEDSAVYFCARGYGDYSFAYWGQGTLVTVSA
VL: DIVMTQAAPSVPVTPGESVSISCRSSKSLLHSNGNTYLYWFLQRPGQSPQLLIYRMSNLASGVPDRFSGSGSGAAFTLRISRVEAEDVGVYYCMQHLEYPYTFGSGTKLEIK
modifications: (Gly4Ser)1 linker; C-terminal FLAG tag
B5: VB45B sc(Fv)2 (scFv, part only; not given: linkers and FLAG tag, part only)
scFv, part: QVQLQQSGPELVKPGASVKISCKASGYAFSSSWMNWVKQRPGKGLEWIGRIYPGDGETNNNGKFKGKATLTADKSSTTAYMQLSSLTSEDSAVYFCARGYGDYSFAYWGQGTLVTVSADIVMTQAAPSVPVTPGESVSISCRSSKSLLHSNGNTYLYWFLQRPGQSPQLLIYRMSNLASGVPDRFSGSGSGAAFTLRISRVEAEDVGVYYCMQHLEYPYTFGSGTKLEIKQVQLQQSGPELVKPGASVKISCKASGYAFSSSWMNWVKQRPGKGLEWIGRIYPGDGETNNNGKFKGKATLTADKSSTTAYMQLSSLTSEDSAVYFCARGYGDYSFAYWGQGTLVTVSADIVMTQAAPSVPVTPGESVSISCRSSKSLLHSNGNTYLYWFLQRPGQSPQLLIYRMSNLASGVPDRFSGSGSGAAFTLRISRVEAEDVGVYYCMQHLEYPYTFGSGTKLEIK
B6: VB140 sc(Fv)2 (scFv, part only; not given: linkers and FLAG tag, part only)
scFv, part: QVQLQQSGPELVKPGASVKISCRAFGYAFSNSWMNWVKQRPGKGLEWIGRIYPGDGETNNNGKFKGKATLTADKSSSTAYMQLSSLTSEDSAVYFCARGYGDYSFAYWGQGTLVTVSADIVMTQAAPSVPVTPGESVSISCRSSKSLLHSNGNTYLYWFLQRPGQSPQLLIYRMSNLASGVPDRFSGSGSGAAFTLRISRVEAEDVGVYYCMQHLEYPYTFGSGTKLEIKQVQLQQSGPELVKPGASVKISCRAFGYAFSNSWMNWVKQRPGKGLEWIGRIYPGDGETNNNGKFKGKATLTADKSSSTAYMQLSSLTSEDSAVYFCARGYGDYSFAYWGQGTLVTVSADIVMTQAAPSVPVTPGESVSISCRSSKSLLHSNGNTYLYWFLQRPGQSPQLLIYRMSNLASGVPDRFSGSGSGAAFTLRISRVEAEDVGVYYCMQHLEYPYTFGSGTKLEIK
B7: TA136 sc(Fv)2 (scFv, part only; not given: linkers and FLAG tag, part only)
scFv, part: DVQLQESGPGLVKPSQSLSLTCTVTGYSITSDYAWSWIRQLPGNKLEWMGYITYSGYSIYNPSLKSRISISRDTSKNQLFLQLNSVTTEDTATYYCVGGYDNMDYWGQGTSVTVSSQIVLTQSPAIMSASPGEKVTLTCSASSSVSSSHLYWYQQKPGSSPKLWIYSTSNLASGVPARFSGSGSGTSYSLTISNMETEDAASYFCHQWSSYPWTFGGGTKLEIKDVQLQESGPGLVKPSQSLSLTCTVTGYSITSDYAWSWIRQLPGNKLEWMGYITYSGYSIYNPSLKSRISISRDTSKNQLFLQLNSVTTEDTATYYCVGGYDNMDYWGQGTSVTVSSQIVLTQSPAIMSASPGEKVTLTCSASSSVSSSHLYWYQQKPGSSPKLWIYSTSNLASGVPARFSGSGSGTSYSLTISNMETEDAASYFCHQWSSYPWTFGGGTKLEIK
B8: TA136 diabody (scFv, V domains shown, part only)
VH: DVQLQESGPGLVKPSQSLSLTCTVTGYSITSDYAWSWIRQLPGNKLEWMGYITYSGYSIYNPSLKSRISISRDTSKNQLFLQLNSVTTEDTATYYCVGGYDNMDYWGQGTSVTVSS
VL: QIVLTQSPAIMSASPGEKVTLTCSASSSVSSSHLYWYQQKPGSSPKLWIYSTSNLASGVPARFSGSGSGTSYSLTISNMETEDAASYFCHQWSSYPWTFGGGTKLEIK
modifications: (Gly4Ser)1 linker; C-terminal FLAG tag
B9: VB16 sc(Fv)2 (scFv, part only; not given: linkers and FLAG tag, part only)
scFv, part: QVQLQQPGTELVRPGASVKLSCKASGYTFTDYWVNWVKQRPGRGLEWIGRIHPYDSETHYNQKFKNKATLTVDKSSSTAYIQLSSLTSEDSAVYYCASGGWFASWGQGTLVTVSADIVMTQAAPSVPVTPGESVSISCRSSKSLLYSNGNTYLYWFLQRPGQSPQLLIYRMSNLASGVPDRFSGSGSGTAFTLTISSVEAEDVGVYYCMQHLEYPYTFGSGTKLEIKQVQLQQPGTELVRPGASVKLSCKASGYTFTDYWVNWVKQRPGRGLEWIGRIHPYDSETHYNQKFKNKATLTVDKSSSTAYIQLSSLTSEDSAVYYCASGGWFASWGQGTLVTVSADIVMTQAAPSVPVTPGESVSISCRSSKSLLYSNGNTYLYWFLQRPGQSPQLLIYRMSNLASGVPDRFSGSGSGTAFTLTISSVEAEDVGVYYCMQHLEYPYTFGSGTKLEIK

The first test deals with T1, human Mp1. Nature of the test: hybridoma supernatants; ELISA on shMp1-FLAG and hMp1-Fc, flow cytometry on CHO-human Mp1 cells, BaF3-human Mp1 proliferation. How it is done:
MRL/MpJUmmCrj-lpr/lpr mice (hereinafter abbreviated as “MRL/lpr mice”; purchased from Charles River, Japan) were immunized; the primary immunization was carried out at eight weeks of age. For every single mouse, an emulsion containing 100 μg of shMPL-FLAG combined with Freud's complete adjuvant (H37 Ra; Beckton Dickinson), was administered subcutaneously as the primary injection. As a booster injection, an emulsion containing shMPL-FLAG (50 μg per mouse) combined with Freud's incomplete adjuvant (Beckton Dickinson) was administered subcutaneously. Three mice which have been immunized six times in total were subjected to a final injection of shMPL-FLAG (50 μg per mouse) through the caudal vein. Cell fusion was achieved by mixing the mouse myeloma P3-X63Ag8U1 cells (P3U1; purchased from ATCC) and mouse splenocytes using polyethylene glycol 1500 (Roche Diagnostics). Hybridoma selection in HAT medium began the following day and culture supernatants were obtained. Screening was carried out by ELISA using immunoplates with immobilized shMp1-FLAG or hMp1-Fc, and by a cell proliferation assay of BaF3-hMp1. Positive clones were isolated as single clones by limiting dilution and then cultured on a large scale. The culture supernatants were collected. Anti-human Mp1 antibody-producing hybridomas, VB22B, VB16, VB140, and VB45B, were obtained by this method.
For B1, the binding result is recorded as “binds”.

For the next test, the target named is full-length human Mp1 expressed on BaF3 cells (human) (UniProt P40238). Nature of the test: cell-based or functional assay.
In turn, B2 showed an agonistic activity (EC50 value: pM) in BaF3-human Mpl, cell proliferation (WST-8) of 190 pM. The molecule B3 gave an agonistic activity (EC50 value: pM) in BaF3-human Mpl, cell proliferation (WST-8) of 89 pM. Take B4: the agonistic activity (EC50 value: pM) in BaF3-human Mpl, cell proliferation (WST-8) turned out to be 76 pM. On the same count and under the same terms, the result for B5 reads 30 pM; that for B6, 38 pM; that for B7, 54 pM. On the same count and under the same terms, next, B8: 3080 pM. The same measure, in the same setting: the result for B9 reads 95 pM.
